The text below walks through data of patent US20230391861A1 (Stanford University, published 2023).

Assay [1] has as its target T1, PTCH1 on NIH-3T3 / 3T3-Light2 cells (UniProt Q61115 1-1434, limits assumed).
T1 sequence (looked up): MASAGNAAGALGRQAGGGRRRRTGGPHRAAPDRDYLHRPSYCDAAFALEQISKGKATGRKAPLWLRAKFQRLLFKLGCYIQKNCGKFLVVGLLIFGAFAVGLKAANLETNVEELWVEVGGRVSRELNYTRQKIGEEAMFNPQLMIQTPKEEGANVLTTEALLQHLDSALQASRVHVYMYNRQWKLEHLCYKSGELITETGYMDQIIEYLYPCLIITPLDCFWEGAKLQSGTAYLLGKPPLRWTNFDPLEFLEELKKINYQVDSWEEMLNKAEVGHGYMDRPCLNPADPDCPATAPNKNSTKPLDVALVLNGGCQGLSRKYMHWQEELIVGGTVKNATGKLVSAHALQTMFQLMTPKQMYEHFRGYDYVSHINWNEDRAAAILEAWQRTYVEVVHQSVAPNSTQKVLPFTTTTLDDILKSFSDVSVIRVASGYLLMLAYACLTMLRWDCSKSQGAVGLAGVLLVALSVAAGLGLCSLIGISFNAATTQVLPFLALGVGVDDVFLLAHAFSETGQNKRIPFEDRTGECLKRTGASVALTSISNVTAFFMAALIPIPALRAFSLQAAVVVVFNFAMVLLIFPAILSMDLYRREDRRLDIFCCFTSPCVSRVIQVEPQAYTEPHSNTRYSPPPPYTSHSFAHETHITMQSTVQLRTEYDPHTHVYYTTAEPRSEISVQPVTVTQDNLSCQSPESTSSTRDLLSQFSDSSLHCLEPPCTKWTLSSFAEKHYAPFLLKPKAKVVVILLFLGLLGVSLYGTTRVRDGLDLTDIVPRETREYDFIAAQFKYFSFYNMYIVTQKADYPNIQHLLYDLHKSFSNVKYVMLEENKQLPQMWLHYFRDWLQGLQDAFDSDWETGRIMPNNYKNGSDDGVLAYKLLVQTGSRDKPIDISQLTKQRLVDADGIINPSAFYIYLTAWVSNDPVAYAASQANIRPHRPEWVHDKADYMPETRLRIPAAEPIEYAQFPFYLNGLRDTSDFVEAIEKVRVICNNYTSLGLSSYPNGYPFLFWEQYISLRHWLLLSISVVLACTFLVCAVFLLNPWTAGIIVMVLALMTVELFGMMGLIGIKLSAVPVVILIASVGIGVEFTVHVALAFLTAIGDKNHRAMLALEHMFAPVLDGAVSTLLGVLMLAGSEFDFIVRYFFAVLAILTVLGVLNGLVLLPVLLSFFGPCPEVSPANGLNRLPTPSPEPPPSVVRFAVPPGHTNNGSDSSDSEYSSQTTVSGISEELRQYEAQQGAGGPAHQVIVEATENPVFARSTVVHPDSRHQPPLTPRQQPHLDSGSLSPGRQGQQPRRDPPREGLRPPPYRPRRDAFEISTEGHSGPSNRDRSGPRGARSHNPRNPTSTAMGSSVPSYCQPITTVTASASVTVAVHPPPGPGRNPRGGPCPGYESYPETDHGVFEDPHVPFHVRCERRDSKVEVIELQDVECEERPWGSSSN
Description: cell-based or functional assay.

The target of assay [2] is T2, Ptch1-C-NNQ (Ptch1-C with D499N, D500N, E1081Q) (mouse, UniProt Q61115 1-618; Q61115 712-1173).
T2 construct: range 1-618;range 712-1173; also called PTCH1-NNQ; NNQ variant; not shown: 1D4 tag
T2 sequence (looked up): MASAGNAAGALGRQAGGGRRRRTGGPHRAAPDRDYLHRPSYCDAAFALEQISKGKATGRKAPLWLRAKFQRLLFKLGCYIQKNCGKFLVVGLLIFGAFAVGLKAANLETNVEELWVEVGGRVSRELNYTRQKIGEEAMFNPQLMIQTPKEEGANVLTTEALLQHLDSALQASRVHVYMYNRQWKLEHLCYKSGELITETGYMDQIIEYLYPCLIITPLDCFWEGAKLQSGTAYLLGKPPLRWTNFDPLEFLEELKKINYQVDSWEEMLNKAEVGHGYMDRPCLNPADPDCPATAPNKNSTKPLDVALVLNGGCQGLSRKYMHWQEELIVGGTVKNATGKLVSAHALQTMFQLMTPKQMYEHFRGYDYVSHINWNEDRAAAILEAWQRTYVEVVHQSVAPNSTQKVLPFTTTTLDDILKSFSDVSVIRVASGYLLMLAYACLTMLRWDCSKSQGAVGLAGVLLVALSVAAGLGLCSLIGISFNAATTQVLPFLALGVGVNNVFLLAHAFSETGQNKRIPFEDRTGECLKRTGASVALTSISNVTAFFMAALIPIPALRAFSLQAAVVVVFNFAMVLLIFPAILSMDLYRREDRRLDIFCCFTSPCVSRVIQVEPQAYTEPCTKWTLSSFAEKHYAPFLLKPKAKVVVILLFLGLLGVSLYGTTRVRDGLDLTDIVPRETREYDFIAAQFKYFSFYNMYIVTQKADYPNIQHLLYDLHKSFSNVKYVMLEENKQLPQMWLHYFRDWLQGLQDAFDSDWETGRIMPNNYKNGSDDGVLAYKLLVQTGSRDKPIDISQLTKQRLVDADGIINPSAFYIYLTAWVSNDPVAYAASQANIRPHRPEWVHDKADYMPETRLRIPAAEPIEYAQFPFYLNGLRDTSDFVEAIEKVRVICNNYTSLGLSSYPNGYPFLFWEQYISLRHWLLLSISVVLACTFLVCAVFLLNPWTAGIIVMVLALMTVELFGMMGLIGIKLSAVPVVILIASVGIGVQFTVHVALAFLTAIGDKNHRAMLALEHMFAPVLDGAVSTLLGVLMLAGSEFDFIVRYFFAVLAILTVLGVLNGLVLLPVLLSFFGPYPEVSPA
The experiment in a line: two-color staining of yeast cells expressing the variants.

Assay [3] has as its target T3, Human PTCH1 on HEPM cells (human, UniProt Q13635 1-1447).
T3 sequence (looked up): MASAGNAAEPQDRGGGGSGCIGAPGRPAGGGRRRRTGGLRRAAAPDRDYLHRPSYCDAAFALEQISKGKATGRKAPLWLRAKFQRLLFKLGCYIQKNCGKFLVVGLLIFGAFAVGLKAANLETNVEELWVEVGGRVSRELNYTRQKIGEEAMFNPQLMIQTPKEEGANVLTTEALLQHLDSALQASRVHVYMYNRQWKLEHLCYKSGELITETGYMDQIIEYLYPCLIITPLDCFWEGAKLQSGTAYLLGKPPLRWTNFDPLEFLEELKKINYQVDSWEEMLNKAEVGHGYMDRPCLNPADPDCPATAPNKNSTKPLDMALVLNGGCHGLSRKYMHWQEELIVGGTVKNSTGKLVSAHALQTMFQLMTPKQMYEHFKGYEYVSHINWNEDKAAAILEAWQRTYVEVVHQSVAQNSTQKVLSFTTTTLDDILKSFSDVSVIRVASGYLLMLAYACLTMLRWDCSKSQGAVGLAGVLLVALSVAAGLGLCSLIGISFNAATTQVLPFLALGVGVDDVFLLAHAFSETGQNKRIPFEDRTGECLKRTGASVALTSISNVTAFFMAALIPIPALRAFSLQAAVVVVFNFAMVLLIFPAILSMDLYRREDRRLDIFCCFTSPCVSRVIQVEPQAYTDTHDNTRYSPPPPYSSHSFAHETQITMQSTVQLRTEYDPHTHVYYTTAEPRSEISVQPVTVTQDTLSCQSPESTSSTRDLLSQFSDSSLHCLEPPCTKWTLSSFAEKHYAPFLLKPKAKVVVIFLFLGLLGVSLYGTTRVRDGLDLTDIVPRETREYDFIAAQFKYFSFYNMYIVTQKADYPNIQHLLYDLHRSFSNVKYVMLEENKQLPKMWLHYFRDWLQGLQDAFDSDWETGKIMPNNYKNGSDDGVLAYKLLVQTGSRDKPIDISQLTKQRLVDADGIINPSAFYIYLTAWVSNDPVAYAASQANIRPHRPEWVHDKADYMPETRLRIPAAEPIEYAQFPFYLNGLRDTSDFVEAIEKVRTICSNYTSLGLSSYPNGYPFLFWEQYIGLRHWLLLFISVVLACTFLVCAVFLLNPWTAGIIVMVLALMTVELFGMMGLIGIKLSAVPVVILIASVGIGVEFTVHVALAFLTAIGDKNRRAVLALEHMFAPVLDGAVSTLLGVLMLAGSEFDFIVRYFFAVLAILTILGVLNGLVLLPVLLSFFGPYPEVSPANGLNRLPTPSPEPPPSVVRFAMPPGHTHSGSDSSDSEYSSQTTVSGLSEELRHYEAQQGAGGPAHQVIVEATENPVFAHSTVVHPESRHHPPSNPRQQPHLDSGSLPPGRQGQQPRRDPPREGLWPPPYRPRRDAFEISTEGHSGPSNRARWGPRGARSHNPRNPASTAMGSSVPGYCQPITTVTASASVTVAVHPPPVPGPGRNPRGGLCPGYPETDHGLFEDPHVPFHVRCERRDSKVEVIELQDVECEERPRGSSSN
The experiment in a line: cell-based or functional assay.

Residue numbers refer to the chain shown, from its start.

In turn, ShhNp (ligand) gave an EC50, Gli-luciferase assay in NIH-3T3 cells in assay [1] of 1.4 nM.

B1: T23 nanobody (VHH)
VHH: QVQLQESGGGLVQAGGSLRLSCAASGNIFAYYIMGWYRQAPGKERELVATIDIGGNTNYADSVKGRFTISRDNAKNTVYLQMNSLKPEDTAVYYCAVQAVPYRYRRYWGQGTQVTVSS
notes: also called 23T
For B1, in assay [2], the binding result is listed as “binds”.

B2: Nanobody clone 23 (VHH)
VHH: B1 VHH with T50G, R105H, R106G
notes: Initial clone from the synthetic yeast display library; also called Nb23; NB23
Consider B2, for which the binding result in assay [2] is “binds”.

B3: TI23 nanobody (VHH)
VHH: B1 VHH with T77N, Y102I
For B3, in assay [3], the “EC50, transcription of GLI1 in HEPM cells (qPCR)” value is 16 nM and the “EC50, transcription of PTCH1 in HEPM cells (qPCR)” value amounted to 18.5 nM. In addition, in assay [1], the “EC50, Gli-dependent luciferase reporter in 3T3 cells” value stood at 8.6 nM; the “EC50, Gli-luciferase assay in NIH-3T3 cells” value came out at 6.9 nM; the “maximum response relative to ShhNp, Gli-luciferase assay” value is approximately 75%.
